Test [1] addresses PCSK9 antigen (SEQ ID NO: 53), human PCSK9 (human) (UniProt Q8NBP7). In words: flow cytometry, PCSK9 left bound to CHO-LDLR cells (anti-His-FITC), control IgG 100 nM.
For test [2] the target is unchanged. In words: flow cytometry, PCSK9 left bound to CHO-LDLR cells (anti-His-FITC), control IgG 1 nM.
Test [3] has the same target. The test is described as follows: flow cytometry, PCSK9 left bound to CHO-LDLR cells (anti-His-FITC), control IgG 1000 nM.
Test [4] shares this target. The test is described as follows: flow cytometry, PCSK9 left bound to CHO-LDLR cells (anti-His-FITC), control IgG 0.1 nM.
For test [5] the target is unchanged. In words: flow cytometry, PCSK9 left bound to CHO-LDLR cells (anti-His-FITC), control IgG 10 nM.

With IgG (antibody), the Fluorescence signal value was determined as 7520 in test [1]; 6730 in test [2]; 8920 in test [3]; 7000 in test [4]; 6960 in test [5].
